From article PMC9097876 (Science Immunology, 2022)

Biological target: T1, SARS-CoV-2 spike receptor-binding domain (RBD), original Wuhan isolate (SARS-CoV-2, Wuhan isolate, UniProt P0DTC2)
T1 construct: not shown: His tag, C-terminal, kept
Assay: BLI
Conditions: both partners purified

B1: G32Q4 Fab (Fab, V domains shown)
VH: QVQLVESGGGVVQPGRSLRLSCAASGFTFSRYAMQWVRQAPGKGLEWVAVISYDGNNRYYADSVKGRFTISRDNSKNTLYLQMNSLRAEDTAVYYCARGPPGYYDSSGYYQTPEYFQHWGQGTLVTVSS
VL: QSVLTQPPSVSGAPGQRVTISCTGSSSNIGVGYDVHWYQQFPGTVPKLLIYGNSNRPSGVPDRFSGSKSGTSASLAITGLQAEDEADYYCQSYDSSLSGVVFGGGTKLTVL
B1 was tested, and the koff was 0.0066 s⁻¹ and the kon was 1.2e+06 M⁻¹ s⁻¹.
